This experiment concerns the target His6–Drp1, full-length Drp1-short isoform. The experiment is described as follows: co-sedimentation.

Our source for the percent of His6–Drp1 in the pellet (with GMP–PCP and His6–cyclin C) and percent of His6–Drp1 in the pellet (with GMP–PCP) values is publication PMC6589575.

Substance “His6–Drp1, full-length Drp1-short isoform (enzyme)” yielded a percent of His6–Drp1 in the pellet (with GMP–PCP and His6–cyclin C) of 34%; a percent of His6–Drp1 in the pellet (with GMP–PCP) of 16%.
